Reference: publication PMC6451096, “Molecular basis for transfer RNA recognition by the double-stranded RNA-binding domain of human dihydrouridine synthase 2”
Residue numbers refer to the chain shown, from its start.

What was measured:
hDus2 full length [1] = biological target: T1, hDus2 full length (Homo sapiens, UniProt Q9NX74 1-493); experiment: EMSA; same affinity as for deltaACS; value only in Fig S12e; EMSA: 50 mM Tris-HCl pH 8, 10% glycerol, 5 mM DTT, 150 mM ammonium acetate, 1 uM tRNALys3, 20 min room temperature; 6% native PAGE at 4 C; settings: protein: recombinant; tRNA fold
T1 sequence (Q9NX74 whole entry): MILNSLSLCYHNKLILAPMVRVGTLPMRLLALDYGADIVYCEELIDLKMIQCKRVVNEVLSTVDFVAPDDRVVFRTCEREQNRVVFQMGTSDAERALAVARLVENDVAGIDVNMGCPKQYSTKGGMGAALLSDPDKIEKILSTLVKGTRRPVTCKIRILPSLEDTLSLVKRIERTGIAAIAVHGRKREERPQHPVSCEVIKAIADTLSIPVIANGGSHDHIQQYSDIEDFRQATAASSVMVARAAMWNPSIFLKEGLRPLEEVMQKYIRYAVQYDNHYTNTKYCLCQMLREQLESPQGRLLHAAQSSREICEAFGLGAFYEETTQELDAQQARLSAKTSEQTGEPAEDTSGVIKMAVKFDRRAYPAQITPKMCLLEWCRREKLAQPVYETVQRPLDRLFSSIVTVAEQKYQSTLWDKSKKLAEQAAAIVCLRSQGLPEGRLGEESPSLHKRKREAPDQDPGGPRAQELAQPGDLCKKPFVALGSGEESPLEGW

hDus2 dsRBD WT [2] = biological target: T2, hDus2 dsRBD WT (Homo sapiens, UniProt Q9NX74 339-451); experiment: X-ray crystallography; 20 mM MgCl2 in reservoir; EMSA: 50 mM Tris-HCl pH 8, 10% glycerol, 5 mM DTT, 150 mM ammonium acetate, 1 uM tRNALys3, 20 min room temperature; 6% native PAGE at 4 C; settings: protein: recombinant
T2 sequence: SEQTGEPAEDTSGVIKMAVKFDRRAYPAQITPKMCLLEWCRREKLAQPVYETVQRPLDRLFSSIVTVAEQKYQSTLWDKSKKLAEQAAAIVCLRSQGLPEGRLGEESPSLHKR

hDus2 dsRBD R361A-R362A [3] = biological target: T3, hDus2 dsRBD R361A-R362A (Homo sapiens, UniProt Q9NX74 339-451, R361A;R362A); experiment: EMSA; EMSA: 50 mM Tris-HCl pH 8, 10% glycerol, 5 mM DTT, 150 mM ammonium acetate, 1 uM tRNALys3, 20 min room temperature; 6% native PAGE at 4 C; settings: protein: recombinant
T3 sequence: T2 sequence with R23A, R24A

hDus2 dsRBD R361A = biological target: T4, hDus2 dsRBD R361A (Homo sapiens, UniProt Q9NX74 339-451, R361A); experiment: as above; settings: protein: recombinant
T4 sequence: T2 sequence with R23A

hDus2 full length [4] = biological target: T1, hDus2 full length; experiment: EMSA; same affinity as for full tRNA; value only in Fig S12e; EMSA: 50 mM Tris-HCl pH 8, 10% glycerol, 5 mM DTT, 150 mM ammonium acetate, 1 uM tRNALys3, 20 min room temperature; 6% native PAGE at 4 C; settings: protein: recombinant; tRNA fold, anticodon stem removed
hDus2 full length [5] = biological target: T1, hDus2 full length; experiment: SEC-MALLS; 1:1 protein:RNA; EMSA: 50 mM Tris-HCl pH 8, 10% glycerol, 5 mM DTT, 150 mM ammonium acetate, 1 uM tRNALys3, 20 min room temperature; 6% native PAGE at 4 C; settings: protein: recombinant; label: 15N for tRNA-observed NMR; tRNA fold
hDus2 dsRBD WT [6] = biological target: T2, hDus2 dsRBD WT; experiment: EMSA; apparent Kd shown only in histogram; EMSA: 50 mM Tris-HCl pH 8, 10% glycerol, 5 mM DTT, 150 mM ammonium acetate, 1 uM tRNALys3, 20 min room temperature; 6% native PAGE at 4 C; settings: protein: recombinant; label: 15N for tRNA-observed NMR; tRNA fold
hDus2 dsRBD R397A = biological target: T5, hDus2 dsRBD R397A (Homo sapiens, UniProt Q9NX74 339-451, R397A); experiment: EMSA; EMSA: 50 mM Tris-HCl pH 8, 10% glycerol, 5 mM DTT, 150 mM ammonium acetate, 1 uM tRNALys3, 20 min room temperature; 6% native PAGE at 4 C; settings: protein: recombinant; label: 15N for tRNA-observed NMR; tRNA fold
T5 sequence: T2 sequence with R59A

hDus2 dsRBD K419A = biological target: T6, hDus2 dsRBD K419A (Homo sapiens, UniProt Q9NX74 339-451, K419A); experiment: as above; settings: protein: recombinant; label: 15N for tRNA-observed NMR; tRNA fold
T6 sequence: T2 sequence with K81A

hDus2 dsRBD K420A = biological target: T7, hDus2 dsRBD K420A (Homo sapiens, UniProt Q9NX74 339-451, K420A); experiment: as above; settings: protein: recombinant; label: 15N for tRNA-observed NMR; tRNA fold
T7 sequence: T2 sequence with K82A

hDus2 dsRBD K371A = biological target: T8, hDus2 dsRBD K371A (Homo sapiens, UniProt Q9NX74 339-451, K371A); experiment: as above; settings: protein: recombinant; label: 15N for tRNA-observed NMR; tRNA fold
T8 sequence: T2 sequence with K33A

hDus2 dsRBD R362A = biological target: T9, hDus2 dsRBD R362A (Homo sapiens, UniProt Q9NX74 339-451, R362A); experiment: EMSA; no impact of mutation; EMSA: 50 mM Tris-HCl pH 8, 10% glycerol, 5 mM DTT, 150 mM ammonium acetate, 1 uM tRNALys3, 20 min room temperature; 6% native PAGE at 4 C; settings: protein: recombinant; label: 15N for tRNA-observed NMR; tRNA fold
T9 sequence: T2 sequence with R24A

hDus2 dsRBD K419A-K420A = biological target: T10, hDus2 dsRBD K419A-K420A (Homo sapiens, UniProt Q9NX74 339-451, K419A;K420A); experiment: EMSA; EMSA: 50 mM Tris-HCl pH 8, 10% glycerol, 5 mM DTT, 150 mM ammonium acetate, 1 uM tRNALys3, 20 min room temperature; 6% native PAGE at 4 C; settings: protein: recombinant; label: 15N for tRNA-observed NMR; tRNA fold
T10 sequence: T2 sequence with K81A, K82A

hDus2 dsRBD R361A-R362A [7] = biological target: T3, hDus2 dsRBD R361A-R362A; experiment: as above; settings: protein: recombinant; label: 15N for tRNA-observed NMR; tRNA fold

B1: tRNAPhe transcript (structured_RNA)
RNA: GCGGAUUUAGCUCAGUUGGGAGAGCGCCAGACUGAAGAUCUGGAGGUCCUGUGUUCGAUCCACAGAAUUCGCACCA
B1: binds (hDus2 full length [1]).

B2: 11-nt palindromic dsRNA (dsRNA)
RNA 1: CGAACUUCGCG
RNA 2: CGAACUUCGCG
In the case of B2, the binding result (hDus2 dsRBD WT [2]) is reported as “binds”, the binding signal (hDus2 dsRBD R361A-R362A [3]) is reported as ~1 affinity relative to same mutant for tRNA (similar) and the binding signal (hDus2 dsRBD R361A) is reported as ~3.7 fold lower affinity than same mutant for tRNA.

B3: tRNAPhe-deltaACS transcript (structured_RNA)
RNA: GCGGAUUUAGCUCAGUUGGGAGAGCGCCGAAGGGAGGUCCUGUGUUCGAUCCACAGAAUUCGCACCA
B3: binds (hDus2 full length [4]).

B4: human tRNALys3 (structured_RNA)
RNA: GCCCGGAUAGCUCAGUCGGUAGAGCAUCAGACUUUUAAUCUGAGGGUCCAGGGUUCAAGUCCCUGUUCGGGCGCCA
modifications: modified in vivo in E. coli (Psi39 mentioned)
In the case of B4, the binding result (hDus2 full length [5]) is reported as “binds”, the binding result (hDus2 dsRBD WT [6]) is reported as “binds” and the binding signal (hDus2 dsRBD R397A) is reported as ~2 fold lower affinity than WT. For the same binder, the binding signal (hDus2 dsRBD K419A) was > 4 fold lower affinity than WT, the binding signal (hDus2 dsRBD K420A) was > 4 fold lower affinity than WT and the binding signal (hDus2 dsRBD K371A) was ~8 fold lower affinity than WT. For the same binder, the binding result (hDus2 dsRBD R362A) was “binds”, the binding signal (hDus2 dsRBD K419A-K420A) was ~17 fold lower affinity than WT and the binding signal (hDus2 dsRBD R361A-R362A [7]) was ~6 fold lower affinity than WT.
